Measured values from publication PMC6526949 (Biochemistry, 2018).

Molecular target: the molecule itself
Assay: SEC

B1: Escherichia coli O-acetylserine sulfhydrylase isoenzyme B (CysM) (enzyme, UniProt P16703 1-303, looked up)
chain: MSTLEQTIGNTPLVKLQRMGPDNGSEVWLKLEGNNPAGSVKDRAALSMIVEAEKRGEIKPGDVLIEATSGNTGIALAMIAALKGYRMKLLMPDNMSQERRAAMRAYGAELILVTKEQGMEGARDLALEMANRGEGKLLDQFNNPDNPYAHYTTTGPEIWQQTGGRITHFVSSMGTTGTITGVSRFMREQSKPVTIVGLQPEEGSSIPGIRRWPTEYLPGIFNASLVDEVLDIHQRDAENTMRELAVREGIFCGVSSGGAVAGALRVAKANPDAVVVAIICDRGDRYLSTGVFGEEHFSQGAGI
modifications: PLP cofactor ligated through a Schiff base to the ε-amino group of Lysine-41 (PLP:CysM ratio approximately 0.57:1)
Q: B1 was tested. Which “stoichiometry N” value did it give?
A: Its value is 2.
